Assay results: patent publication US20150344540A1, “NOVEL GLP-1 RECEPTOR AGONISTS WITH CHOLESTEROL EFFLUX ACTIVITY” (NOVO NORDISK A/S, priority 2012, published 2015)
Where no end group is shown, it is not given here. [ ]: non-standard residue; d: D form. Aib = CC(C)(N)C(=O)O

The binders below were run against human GLP-1 receptor (human, UniProt P43220) (assay: cell-based or functional assay).

Binder	CRE luciferase EC50, 0% HSA [nM]	CRE luciferase EC50, 1% HSA [nM]
H[Aib]EGTFTSDVSSYLEGKAVKEFIAWLVEK[Aib]KEFL-NH2 (N-terminus assumed; SMILES CC[C@H](C)[C@H](NC(=O)[C@H](Cc1ccccc1)NC(=O)[C@H](CCC(=O)O)NC(=O)[C@H](CCCCN)NC(=O)[C@@H](NC(=O)[C@H](C)NC(=O)[C@H](CCCCN)NC(=O)CNC(=O)[C@H](CCC(=O)O)NC(=O)[C@H](CC(C)C)NC(=O)[C@H](Cc1ccc(O)cc1)NC(=O)[C@H](CO)NC(=O)[C@H](CO)NC(=O)[C@@H](NC(=O)[C@H](CC(=O)O)NC(=O)[C@H](CO)NC(=O)[C@@H](NC(=O)[C@H](Cc1ccccc1)NC(=O)[C@@H](NC(=O)CNC(=O)[C@H](CCC(=O)O)NC(=O)C(C)(C)NC(=O)[C@@H](N)Cc1c[nH]cn1)[C@@H](C)O)[C@@H](C)O)C(C)C)C(C)C)C(=O)N[C@@H](C)C(=O)N[C@@H](Cc1c[nH]c2ccccc12)C(=O)N[C@@H](CC(C)C)C(=O)N[C@H](C(=O)N[C@@H](CCC(=O)O)C(=O)N[C@@H](CCCCN)C(=O)NC(C)(C)C(=O)N[C@@H](CCCCN)C(=O)N[C@@H](CCC(=O)O)C(=O)N[C@@H](Cc1ccccc1)C(=O)N[C@@H](CC(C)C)C(N)=O)C(C)C) [[Aib8,Lys23,Val25,Glu34,Lys35,Aib36,Lys37]-GLP-1-(7-37)-peptidyl-Glu-Phe-Leu amide]	0.311	0.173
HGEGTFTSDVSSYLEGEAVKEFIAWLVEKVKEFLG [[Gly8,Glu23,Val25,Glu34,Lys35,Val36,Lys37]-GLP-1-(7-37)-peptidyl-Glu-Phe-Leu-Gly]	0.464	0.122
H[Aib]EGTFTSDVSSYLEGEAVREFIAWLVERVREFLK-NH2 (N-terminus assumed; SMILES CC[C@H](C)[C@H](NC(=O)[C@H](Cc1ccccc1)NC(=O)[C@H](CCC(=O)O)NC(=O)[C@H](CCCNC(=N)N)NC(=O)[C@@H](NC(=O)[C@H](C)NC(=O)[C@H](CCC(=O)O)NC(=O)CNC(=O)[C@H](CCC(=O)O)NC(=O)[C@H](CC(C)C)NC(=O)[C@H](Cc1ccc(O)cc1)NC(=O)[C@H](CO)NC(=O)[C@H](CO)NC(=O)[C@@H](NC(=O)[C@H](CC(=O)O)NC(=O)[C@H](CO)NC(=O)[C@@H](NC(=O)[C@H](Cc1ccccc1)NC(=O)[C@@H](NC(=O)CNC(=O)[C@H](CCC(=O)O)NC(=O)C(C)(C)NC(=O)[C@@H](N)Cc1c[nH]cn1)[C@@H](C)O)[C@@H](C)O)C(C)C)C(C)C)C(=O)N[C@@H](C)C(=O)N[C@@H](Cc1c[nH]c2ccccc12)C(=O)N[C@@H](CC(C)C)C(=O)N[C@H](C(=O)N[C@@H](CCC(=O)O)C(=O)N[C@@H](CCCNC(=N)N)C(=O)N[C@H](C(=O)N[C@@H](CCCNC(=N)N)C(=O)N[C@@H](CCC(=O)O)C(=O)N[C@@H](Cc1ccccc1)C(=O)N[C@@H](CC(C)C)C(=O)N[C@@H](CCCCN)C(N)=O)C(C)C)C(C)C) [[Aib8,Glu23,Val25,Arg26,Glu34,Arg35,Val36,Arg37]-GLP-1-(7-37)-peptidyl-Glu-Phe-Leu-Lys amide]	0.433	0.118
H[Aib]EGTFTSDVSSYLEGEAVKEFIAWLLEK[Aib]KEWL-NH2 (N-terminus assumed; SMILES CC[C@H](C)[C@H](NC(=O)[C@H](Cc1ccccc1)NC(=O)[C@H](CCC(=O)O)NC(=O)[C@H](CCCCN)NC(=O)[C@@H](NC(=O)[C@H](C)NC(=O)[C@H](CCC(=O)O)NC(=O)CNC(=O)[C@H](CCC(=O)O)NC(=O)[C@H](CC(C)C)NC(=O)[C@H](Cc1ccc(O)cc1)NC(=O)[C@H](CO)NC(=O)[C@H](CO)NC(=O)[C@@H](NC(=O)[C@H](CC(=O)O)NC(=O)[C@H](CO)NC(=O)[C@@H](NC(=O)[C@H](Cc1ccccc1)NC(=O)[C@@H](NC(=O)CNC(=O)[C@H](CCC(=O)O)NC(=O)C(C)(C)NC(=O)[C@@H](N)Cc1c[nH]cn1)[C@@H](C)O)[C@@H](C)O)C(C)C)C(C)C)C(=O)N[C@@H](C)C(=O)N[C@@H](Cc1c[nH]c2ccccc12)C(=O)N[C@@H](CC(C)C)C(=O)N[C@@H](CC(C)C)C(=O)N[C@@H](CCC(=O)O)C(=O)N[C@@H](CCCCN)C(=O)NC(C)(C)C(=O)N[C@@H](CCCCN)C(=O)N[C@@H](CCC(=O)O)C(=O)N[C@@H](Cc1c[nH]c2ccccc12)C(=O)N[C@@H](CC(C)C)C(N)=O) [[Aib8,Glu23,Val25,Leu33,Glu34,Lys35,Aib36,Lys37]-GLP-1-(7-37)-peptidyl-Glu-Trp-Leu amide]	0.659	0.32
